In patent US20250250357A1 (NANJING ZAIMING PHARMACEUTICAL, published 2025):

Key:
[1] = target: T1, human MSLN protein endogenously expressed on OVCAR3 tumor cells (human, UniProt Q13421 296-598); test: FACS on OVCAR3 cells
T1 construct: whole, on cells; Endogenous target on OVCAR3 cells; kept apart from the recombinant full-length construct; also called mesothelin

[2] = target: T2, human MSLN-R3 protein (Met487-Ser606 of NCBI AAH09272.1) expressed on HEK293T-hMSLN-R3 cells (human, UniProt Q13421 487-606); test: FACS on HEK293T-hMSLN-R3 cells
T2 construct: also called Region3
T2 sequence (Q13421 495-614): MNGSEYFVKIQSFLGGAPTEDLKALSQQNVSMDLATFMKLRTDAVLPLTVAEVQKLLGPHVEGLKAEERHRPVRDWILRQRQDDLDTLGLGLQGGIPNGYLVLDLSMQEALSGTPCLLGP
Method: (§1) The desired cells were expanded to the logarithmic growth phase in a T-75 cell culture flask. […] After the cells from the previous step were subjected to cell counting, the cell pellet was resuspended to 2×10⁶ cells/mL in a blocking buffer of [PBS+2% (w/w) BSA] and added into a 96-well FACS reaction plate at 50 μL/well. A chimeric antibody (a sample to be tested) was added at 50 μL/well, and the plate was incubated on ice for 2 h. […] After the plate was centrifuged and washed 5 times with a PBST buffer, assay and analysis were performed by FACS (FACS CantoII, purchased from BD). Data analysis was performed by software (Flowjo) to obtain the mean fluorescence intensity (MFI) of the cells.

[3] = target: T3, human MSLN full-length protein (NCBI: AAH09272.1) expressed on HEK293T-hMSLN-B8 cells (human, UniProt Q13421 296-598); test: FACS on HEK293T-hMSLN-B8 cells
T3 construct: Whole encoded precursor
T3 sequence (Q13421 other isoform, or with tags, fused parts or gaps limits assumed): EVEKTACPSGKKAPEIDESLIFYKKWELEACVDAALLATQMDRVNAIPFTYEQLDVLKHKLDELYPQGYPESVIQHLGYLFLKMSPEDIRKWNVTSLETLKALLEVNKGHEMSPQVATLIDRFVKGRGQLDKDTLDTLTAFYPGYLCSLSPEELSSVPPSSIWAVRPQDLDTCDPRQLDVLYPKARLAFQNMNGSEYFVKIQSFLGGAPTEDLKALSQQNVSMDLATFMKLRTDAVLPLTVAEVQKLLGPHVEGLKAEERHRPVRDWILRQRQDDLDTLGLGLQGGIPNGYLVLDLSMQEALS
Method: as §1

[4] = target: T4, human MSLN-FL-his protein (human, UniProt Q13421 296-580); test: competitive ELISA; row Tab107 (conformation); also: test concentration or dose not given here
T4 construct: made in HEK293E cells, purified on nickel column; also called hMSLN-FL-his; human MSLN full-length protein; not shown: His tag
T4 sequence (Q13421 other isoform, or with tags, fused parts or gaps): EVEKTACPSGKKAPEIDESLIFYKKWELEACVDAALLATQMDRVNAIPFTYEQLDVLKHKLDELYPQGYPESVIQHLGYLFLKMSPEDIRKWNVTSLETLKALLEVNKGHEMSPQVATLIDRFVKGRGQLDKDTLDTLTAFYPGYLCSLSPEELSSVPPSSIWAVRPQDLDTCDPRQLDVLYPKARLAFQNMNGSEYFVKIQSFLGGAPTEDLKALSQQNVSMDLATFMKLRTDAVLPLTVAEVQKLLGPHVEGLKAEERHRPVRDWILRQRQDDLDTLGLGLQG

[5] = target: T4, human MSLN-FL-his protein; test: competitive ELISA; row F2.39.3; also: test concentration or dose not given here
[6] = target: T4, human MSLN-FL-his protein; test: competitive ELISA; row F1.56.1; also: test concentration or dose not given here
[7] = target: T4, human MSLN-FL-his protein; test: competitive ELISA; row F2.24.10; also: test concentration or dose not given here
[8] = target: T4, human MSLN-FL-his protein; test: competitive ELISA; row Tab108 (R3); also: test concentration or dose not given here
[9] = target: T4, human MSLN-FL-his protein; test: competitive ELISA; row F2.17.3
Method: In order to identify antigen-binding sites of antibodies, MSLN chimeric antibodies were grouped using competitive ELISA.
The chimeric antibodies were diluted to 2 μg/mL with PBS and allowed to coat 96-well high-adsorption ELISA plates at 50 μL/well. After the plates were coated at 4° C. overnight, 250 μL of a blocking buffer (PBS containing 2% (w/w) BSA) was added for two hours of blocking at room temperature. 40 μg/mL of the antibodies to be tested were added, and then the human MSLN-FL-His protein with an EC₈₀ concentration corresponding to each of the antibodies to be tested was added for incubation for 2 h. The plates were washed 5 times with PBS, an HRP-labeled anti-His secondary antibody (purchased from Genescript, Cat. No. A00612) was then added for incubation for 1 h, and the plates were washed 5 times again. A TMB substrate was added at 50 μL/well, and after 10 minutes of incubation at room temperature, a stop solution (1.0 M HCl) was added at 50 μL/well. OD₄₅₀ nm values were read using an ELISA plate reader (Insight, purchased from PerkinElmer), and the competition rate between the antibodies was calculated according to the OD₄₅₀ nm values using a formula.

[10] = target: T4, human MSLN-FL-his protein; test: competitive ELISA; row F1.35.24; also: test concentration or dose not given here
[11] = target: T4, human MSLN-FL-his protein; test: competitive ELISA; row F2.16.10; also: test concentration or dose not given here
[12] = target: T4, human MSLN-FL-his protein; test: SPR (Biacore), antibody captured on Protein A chip;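 also: measured at 25 °C, analyte injected 240 s in five twofold dilutions from 200 nM, dissociation up to 600 s, double-referenced, fitted with Langmuir 1:1 model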
Method: The flow cell was set at 25° C. The sample block was set at 16° C. Both were pretreated with the running buffer. In each cycle, first, the antibody to be tested was captured using the Protein A chip, and then a single concentration of human MSLN-FL-his protein was injected. […] The association was determined by injecting different concentrations of human MSLN-FL-his in solution for 240 s on end, wherein the flow rate was 30 μL/min, and the protein was diluted in a 1:1 dilution ratio from 200 nM (see detailed results for actual concentrations tested) to obtain 5 concentrations in total. The dissociation phase was monitored for up to 600 s and triggered by switching from the sample solution to the running buffer. The surface was regenerated by washing with 10 mM glycine solution (pH 1.5) at a flow rate of 30 μL/min for 30 s. The difference in bulk refractive index was corrected by subtracting the responses obtained from the goat anti-human Fc surface. Blank injections were also subtracted (=double reference). To calculate the apparent KD and other kinetic parameters, the Langmuir 1:1 model was used.

[13] = target: T4, human MSLN-FL-his protein; test: competitive ELISA; row F2.13.3; also: test concentration or dose not given here
[14] = target: T4, human MSLN-FL-his protein; test: competitive ELISA; row F1.2.12; also: test concentration or dose not given here
[15] = target: T4, human MSLN-FL-his protein; test: competitive ELISA; row F2.58.8; also: test concentration or dose not given here
[16] = target: T4, human MSLN-FL-his protein; test: competitive ELISA; row Tab142 (R1); also: test concentration or dose not given here

T1 sequence (Q13421 other isoform, or with tags, fused parts or gaps): as the sequence (Q13421 other isoform, or with tags, fused parts or gaps limits assumed) above, with P14R counted along it

| Maximum mean fluorescence intensity [1] | EC50 [2] [nM] | Maximum mean fluorescence intensity [2] | Maximum mean fluorescence intensity [3] | competition rate [4] [%] | competition rate [5] [%] | competition rate [6] [%] | competition rate [7] [%] | competition rate [8] [%] | competition rate [9] [%] | competition rate [10] [%] | competition rate [11] [%] | Kd [12] [nM] | koff [12] [s⁻¹] | kon [12] [M⁻¹ s⁻¹] | competition rate [13] [%] | competition rate [14] [%] | competition rate [15] [%] | competition rate [16] [%] | Binder |
| --- | --- | --- | --- | --- | --- | --- | --- | --- | --- | --- | --- | --- | --- | --- | --- | --- | --- | --- | --- |
| 445 | 0.31 | 7070 | 32800 | – | – | – | – | – | – | – | – | – | – | – | – | – | – | – | S009-F1.59.1 (antibody, human IgG1, kappa, V domains shown, human-murine chimeric antibody, human IgG1/kappa constant regions) VH: EVKLEGSGGGLVQPGGSMMLSCVATGFTFSSYWMNWVRQSPDRGLEWVAEIRLKSNGFAAFYAESVKGRFTISRDDSKSSVYLQMNNLRTEDTGIYYCTYFVHWGQGILVTVSE VL: DIVLTQSPTSLAVSLGQRATISCRTSESVEYFGTILIQWYQQKPGQPPKLLIFGASNVESGVPARFSGSGSGTDFSLNIHPVEEEDIAMYFCQQNRKVPYTFGGGTTLELKR |
| – | – | – | – | -6 | 91 | 104 | 6 | 60 | 84 | 96 | 41 | 0.524 | 0.000123 | 236000 | -396 | -133 | 111 | 46 | S009-F2.58.8 (antibody, human IgG1, kappa, V domains shown, human-murine chimeric antibody, human IgG1/kappa constant regions) VH: QVQLLQSGAELAKPGASVKLSCKASGYTFTSYWVHWVKQRPGQGLEWIGYINPNSGYTKYNQKFKDKATLTADKSSSTAYMQLSSLTYEDSAVYYCADHYYGSSRDYFDYWGQGTTLTVSS VL: QIVLTQSPAIMSASPGEKVTMTCSASSSVSYMYWYQQRPGSSPRLLIYDTSNLASGVPVRFSGSGSGTSYSLTISRMEAEDAATYYCQQWNSYPYTFGGGTKLEIKR |
| – | – | – | – | -42 | 23 | -324 | 56 | -158 | -88 | -12 | 88 | 5.13 | 0.0103 | 2.01e+06 | -975 | -484 | 31 | 82 | S009-F2.47.1 (antibody, human IgG1, kappa, V domains shown, human-murine chimeric antibody, human IgG1/kappa constant regions) VH: QVQLQQPGAELVKPGASVKLSCKASGYTFTSYWMHWVKQRPGQGLEWIGMIHPNSGSTNYNEKFKSKATLTVDKSSSTAYMQLSSLTSEDSAVYYCARPVVPYWYFDVWGTGTTVTVSS VL: DIVMTQSQKFMSTTVGDRVSITCKASQNVGTAVAWYQQKPGQSPKLLIYSASNRYTGVPDRFTGSGSGTDFTLTISNMQSEDLADYFCQQSSSYPLTFGAGTKLELKR |
| 948 | 3.9 | 6660 | 8750 | – | – | – | – | – | – | – | – | – | – | – | – | – | – | – | S009-F1.57.1 (antibody, human IgG1, kappa, V domains shown, human-murine chimeric antibody, human IgG1/kappa constant regions) VH: EAQLQQSGAVFVKPGASVKLSCTASGFSSKDIFLHWVKQRPEQGLEWIGRIDPASDNTIYDPKFQDRATITSDRSSNTAYLQFSSLTSEDTAVYFCLYFDFWGQGTTLTVSS VL: DIVMTQATPSISVTPGESVSISCRSSESLLHSNGNTYLYWFLQRPGQSPQLLIYRMSNLASGVPDRFSVSGSGTAFTLRISRVEAEDVGVYYCMQHLEYPLTFGAGTKLELKR |
| – | – | – | – | -51 | 31 | -401 | 88 | -156 | -34 | -18 | 103 | 1.51 | 0.00164 | 1.09e+06 | -740 | -401 | 18 | 98 | S009-F2.16.10 (antibody, human IgG1, kappa, V domains shown, human-murine chimeric antibody, human IgG1/kappa constant regions) VH: QVQLQQPGAELIKPGASVKLSCKASGYTFTSYWMHWVKQRPGQGLEWIGIIHPNIGSTNYNERFKSKATLTVDKSSSTAYMQLSSLTSEDSAVYYCARRSSNYGDWYFDVWGTGTTVTVSS VL: DIVMTQSHRFMSTSVGDRVSITCKASQDVGTSVAWYQQKPGQSPKLLIYWASTQHTGVPDRFTGSGSGTDFTLTINNVQSEDLLDYFCQQYSSYPLTFGAGTKLELKR |
| – | – | – | – | 29 | 2 | 74 | -17 | -29 | -31 | 4 | -81 | 15.8 | 0.00143 | 90600 | 54 | 63 | 32 | -5 | S009-F1.2.12 (antibody, human IgG1, kappa, V domains shown, human-murine chimeric antibody, human IgG1/kappa constant regions) VH: QVQLKQTGPGLVQPSQSLSITCTVSGFSLTNYAVHWVRQSPGKGLEWLGVIWSGGATDYNTVFISRLSISKDNSKSQVFFKVNSLQVDDTAIYYCARTGSGYAMDYWGQGTSVTVSS VL: DIVLTQSPATLSVTPGDRVSLSCRTSHNVNTYLHWYQQKSHESPRLLIKYASQSISEIPSRFSGSGSGTNFTLSINSVETEDFGMYFCHQTNRWPLTFGAGTKLELKR |
| – | – | – | – | -1 | 106 | -56 | -13 | 100 | 102 | 43 | -8 | 2.72 | 0.000174 | 64100 | -814 | -182 | 78 | 15 | S009-F2.17.3 (antibody, human IgG1, kappa, V domains shown, human-murine chimeric antibody, human IgG1/kappa constant regions) VH: QVQLQQPGTELVTPGASVKLSCKASGYSFTSYWMHWVKQRPGQGLEWIGNINPSNGDTFYNEKFKNKATLTVDKSSSTAYMQLSSLTSEDSAVYYCARGWLRDYWGQGTTLTVSS VL: not shown |
| – | – | – | – | 0 | 105 | -87 | -13 | 101 | 107 | 47 | 4 | 3.06 | 0.000122 | 40000 | -525 | -208 | 97 | 19 | S009-F2.39.3 (antibody, human IgG1, kappa, V domains shown, human-murine chimeric antibody, human IgG1/kappa constant regions) VH: QVQLQQPGTELVKPGASVKLSCKASGYTFTNYWMHWVKQRPGQGLEWIGNINPSSGDSYYNERFMSKAKMTVDKSSSTAYMQLSSLTSEDSAVYYCARSGGLWLAFWGPGTLVTVSA VL: DIVMTQSPSSLAMSVGQKVTMSCKSSQTLLNSVSQNNYLAWYQQKPGQSPTLLVYFASTRESGVPDRFIGGGSGTDFTLTISSVQAEDLADYFCQQHYRTPYTFGGGTNLEIKR |
| – | – | – | – | 3 | 97 | 24 | 2 | 85 | 90 | 61 | -42 | 8.71 | 0.000714 | 81900 | -1080 | -70 | 69 | 23 | S009-F2.23.12 (antibody, human IgG1, kappa, V domains shown, human-murine chimeric antibody, human IgG1/kappa constant regions) VH: QVQLQQPGTELVKPGASVKLSCKASGYTFTNYWMHWVKQRPGQGLEWIGNINPSNGGPYYNERFRSKATLTVDKSSSTAYMQLSSLTSEDSAVYYCARPYYGSSYGYFDYWGQGTTLTVSS VL: DIQMTQSPSSLSASLGGKVTITCKASQDINKYIAWYQHKPGKGPRLLIHYTSELQPGIPSRFSGNGSGRDYSFSISNLEPEDIATYYCLQYANPLRTFGGGTKLEIKR |
| 429 | 1.44 | 6260 | 41900 | – | – | – | – | – | – | – | – | – | – | – | – | – | – | – | S009-F1.25.10 (antibody, human IgG1, kappa, V domains shown, human-murine chimeric antibody, human IgG1/kappa constant regions) VH: EVQLQQSGPELVKPGASLKISCKASGYSFTDYTMNWVKQSHGKNLEWIGLFNPYNGGISYNQKFKGKATLTVDKSSNTAYMELLSLTSDDSAVYFCARDGRGGFYAMDYWGQGTSVTVSS VL: DIQMTQTTSSLSASLGDRVTISCRASQDISIYLNWYQQKPDGPVKLLIYYTSRLHSGVPSRFSGSGSGTDFSLTISNLEQEDIATYFCQQGYTLPPWTFGGGTKLEIKR |
